From US20220146515A1 (XIAMEN INNODX BIOTECH, published 2022)

What was measured:
Test in all cases: competition ELISA, antibody preincubated with target, AMH-coated plate
[1] = target: T1, human AMH36-47 short peptide, mutation site 38 (human)
T1 peptide: GLAFREDLDWPP
Description: (§1) 1. AMH antigen was diluted with carbonic acid buffer (20 mmol/L CB, pH 9.6) and then coated on a polyvinyl chloride plate. In the pretreatment, the antibody purified by the protein A column and the synthesized short peptides with different human AMH36-47 amino acid mutations were subjected to proportion incubation (100 ng/ml antibody: 50 ug/ml truncated antigen) for 30 minutes, that were test samples; the control sample was (100 ng/ml antibody: PBS) and incubated for 30 minutes, and then the test samples after incubation and the control sample were added to AMH antigen plate and incubated for 30 minutes, the plate was washed for 5 times, added with GAM-HRP (1/5000 dilution) and incubated for 30 minutes, the plate was washed for 5 times, and the substrate was added and incubated for 15 minutes. The values under wavelength of 450/620 were read by microplate reader, and the detected OD values were finally calculated and analyzed. The calculation formula was: (control sample OD value−test sample OD value)/control sample OD value, and the criterion for determination was as follows: a value lower than 90% indicated the corresponding amino acid was a key amino acid, and the mutation has a great impact on the reaction of antibody.

[2] = target: T2, human AMH36-47 short peptide, mutation site 40 (human)
T2 peptide: GLIFAEDLDWPP
Description: as §1

[3] = target: T3, human AMH36-47 short peptide, mutation site 42 (human)
T3 peptide: GLIFREALDWPP
Description: as §1

[4] = target: T4, human AMH36-47 short peptide, mutation site 43 (human)
T4 peptide: GLIFREDADWPP
Description: as §1

[5] = target: T5, human AMH36-47 short peptide, mutation site 45 (human)
T5 peptide: GLIFREDLDAPP
Description: as §1

[6] = target: T6, AMH truncated antigen 36-47 (human)
T6 construct: also called human AMH36-47; AMH3647-27 (Human)
T6 peptide: GLIFREDLDWPP

[7] = target: T7, AMH3647-1 (Deer sequence) (Deer)
T7 peptide: ALIFQQDWDWPL

[8] = target: T8, AMH3647-2 (Beaver sequence) (Beaver)
T8 peptide: DLIFHEDWAWPP

[9] = target: T9, AMH3647-3 (Hamster sequence) (Hamster)
T9 peptide: GLIFFEDGIWPL

[10] = target: T10, AMH3647-4 (Lemur sequence) (Lemur)
T10 peptide: GLIFHEDWDWLP

[11] = target: T11, AMH3647-6 (Otolemur sequence) (Otolemur)
T11 peptide: GLIFHKDWDWQP

AMH3647-7 (Cat sequence) = target: T12, AMH3647-7 (Cat sequence) (Cat)
T12 peptide: GLIFHPDWDWQP

[12] = target: T13, AMH3647-8 (Myotis sequence) (Myotis)
T13 peptide: GLIFHQDWDWPA

[13] = target: T14, AMH3647-9 (Horseshoe bat sequence) (Horseshoe bat)
T14 peptide: GLIFHQDWDWSP

[14] = target: T15, AMH3647-10 (Pig sequence) (Pig)
T15 peptide: GLIFHWDWNWPP

[15] = target: T16, AMH3647-11 (Neotoma sequence) (Neotoma)
T16 peptide: GLIFLEDGIWPP

[16] = target: T17, AMH3647-12 (Gerbil sequence) (Gerbil)
T17 peptide: GLIFLEDGLWPP

[17] = target: T18, AMH3647-13 (Rat sequence) (Rat)
T18 peptide: GLIFLEDGVWPP

[18] = target: T19, AMH3647-15 (Guinea pig sequence) (Guinea pig)
T19 peptide: GLIFPEDQVWPP

[19] = target: T20, AMH3647-16 (Degu sequence) (Degu)
T20 peptide: GLIFPEDWVWPP

[20] = target: T21, AMH3647-17 (Chimpanzee sequence) (Chimpanzee)
T21 peptide: GLIFPEDLDWPP

[21] = target: T22, AMH3647-18 (Simum sequence) (Simum)
T22 peptide: GLIFRQDWDWPP

[22] = target: T23, AMH3647-19 (Dog sequence) (Dog)
T23 peptide: GLLFQPDWDWPP

[23] = target: T24, AMH3647-20 (Goat sequence) (Goat)
T24 peptide: TLIFQQDWDWPL

[24] = target: T25, AMH3647-22 (Mouse sequence) (Mouse)
T25 peptide: GLIFLEDELWPP

[25] = target: T26, AMH3647-23 (Cattle sequence) (Cattle)
T26 peptide: ALIFQQAWDWPL

[26] = target: T27, AMH3647-24 (Owl sequence) (Owl)
T27 peptide: GLIFGEDVDWPP

[27] = target: T28, AMH3647-25 (Horse sequence) (Horse)
T28 peptide: GLIFHQDWDWPP

percent inhibition [1]: 96%
percent inhibition [2]: 88%
percent inhibition [3]: 98%
percent inhibition [4]: 94%
percent inhibition [5]: 100%
percent inhibition [6]: 100%
percent inhibition [7]: -6%
percent inhibition [8]: 11%
percent inhibition [9]: 8%
percent inhibition [10]: 22%
percent inhibition [11]: 3%
percent inhibition (AMH3647-7 (Cat sequence)): 6%
percent inhibition [12]: 8%
percent inhibition [13]: -3%
percent inhibition [14]: 8%
percent inhibition [15]: 5%
percent inhibition [16]: 5%
percent inhibition [17]: 11%
percent inhibition [18]: 2%
percent inhibition [19]: -2%
percent inhibition [20]: 9%
percent inhibition [21]: 19%
percent inhibition [22]: -1%
percent inhibition [23]: 3%
percent inhibition [24]: -9%
percent inhibition [25]: -8%
percent inhibition [26]: 19%
percent inhibition [27]: -2%
B1: monoclonal antibody C9F2-2 (antibody, V domains shown)
VH: EVQLVESGGGLVKPGGSLKLSCAASGFAFSTYDMSWVRQTPEKRLEWVAYISPGGGATYYPDTVKGRFTISRDNAKNTLYLQMTSLKSEDTAMYYCAGRRDYYGMDYWGQGTSVTVSS
VL: DVVMTQTPLSLPVSLGDQASISCRSSQSLVHSNGNTYLHWYLQKPGQSPKLLIYKVSNRFSGVPDRFSGSGSGTDFTLKISRVEAEDLGVYFCSQSTHVPWTFGGGTKLEIK
notes: Mouse hybridoma antibody purified from ascites; the tie is indirect; also called hybridoma CCTCC NO: C2018183
